Publication PMC10772564, “Structural and Biochemical Analysis of 3-Dehydroquinate Dehydratase from Corynebacterium glutamicum” (Journal of Microbiology and Biotechnology, 2023)

T1: CgDHQD (Corynebacterium glutamicum, UniProt O52377)
T1 construct: gene aroQ; full length in pET30a (NdeI/XhoI), C-terminal 6xHis tag not reported cut, E. coli BL21(DE3); by primers starts MPGKILLLN, ends DILANLKK before tag
T1 sequence (O52377 1-145): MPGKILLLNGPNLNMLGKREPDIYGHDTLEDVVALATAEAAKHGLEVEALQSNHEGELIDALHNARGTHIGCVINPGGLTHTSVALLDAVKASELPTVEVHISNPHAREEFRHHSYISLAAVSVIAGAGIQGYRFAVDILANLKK

B1: 3-dehydroquinate dehydratase from Corynebacterium glutamicum, wild type (enzyme, Corynebacterium glutamicum ATCC 13032, UniProt O52377 1-145, looked up)
chain: MPGKILLLNGPNLNMLGKREPDIYGHDTLEDVVALATAEAAKHGLEVEALQSNHEGELIDALHNARGTHIGCVINPGGLTHTSVALLDAVKASELPTVEVHISNPHAREEFRHHSYISLAAVSVIAGAGIQGYRFAVDILANLKK
notes: 3-dehydroquinate dehydratase (type II DHQD, EC 4.2.1.10) of Corynebacterium glutamicum ATCC 13032; The XhoI site of pET30a probably adds LE before the His tag (surmised); also called CgDHQD; CgDHQD^WT; source: E. coli BL21 (DE3)-T1R, purified (Ni-NTA, HiTrap Q ion exchange, size exclusion); copies: 12
B2: 3-dehydroquinate dehydratase from Corynebacterium glutamicum, R19A variant (enzyme, Corynebacterium glutamicum ATCC 13032, UniProt O52377 1-145, looked up)
chain: MPGKILLLNGPNLNMLGKAEPDIYGHDTLEDVVALATAEAAKHGLEVEALQSNHEGELIDALHNARGTHIGCVINPGGLTHTSVALLDAVKASELPTVEVHISNPHAREEFRHHSYISLAAVSVIAGAGIQGYRFAVDILANLKK
notes: also called CgDHQD^R19A; source: E. coli BL21 (DE3)-T1R, purified in the same manner as wild type (Ni-NTA, ion exchange, size exclusion)
B3: CgDHQD (Corynebacterium glutamicum ATCC 13032; S103T) (protein)
chain: MPGKILLLNGPNLNMLGKREPDIYGHDTLEDVVALATAEAAKHGLEVEALQSNHEGELIDALHNARGTHIGCVINPGGLTHTSVALLDAVKASELPTVEVHITNPHAREEFRHHSYISLAAVSVIAGAGIQGYRFAVDILANLKK
notes: full length in pET30a (NdeI/XhoI), C-terminal 6xHis tag not reported cut, E. coli BL21(DE3); by primers starts MPGKILLLN, ends DILANLKK before tag

How the values were obtained:
CgDHQD [1] = biological target: T1, CgDHQD; test: X-ray crystal structure, […] A, co-crystallised; settings: active site, two binding modes; 0.2 M ammonium citrate tribasic pH 7.0 in the crystallisation solution
CgDHQD [2] = biological target: T2, CgDHQD (Corynebacterium glutamicum, UniProt O52377, R19A); test: X-ray crystal structure, […] A, crystal soaked with […] DHQ; assay type: binding; settings: active site; inactive variant; glycerol occupies the R19 side-chain space; pH 5.5
T2 construct: gene aroQ; full length in pET30a (NdeI/XhoI), C-terminal 6xHis tag not reported cut, E. coli BL21(DE3); by primers starts MPGKILLLN, ends DILANLKK before tag

[3] = biological target: the molecule itself; test: SEC; analytical size-exclusion chromatography, Superdex 200 Increase 10/300 GL, 150 mM NaCl, 40 mM Tris-HCl pH 8.0, 1 ml of 1 mg/ml protein, 277 K; calibrated with aldolase, ovalbumin, ribonuclease A, aprotinin
purified protein = substrate: O=C1C[C@@](O)(C(=O)O)C[C@@H](O)[C@@H]1O; test: purified protein; assay type: biochemical, Corynebacterium glutamicum; settings: 50 mM Tris-HCl pH 8.0, room temperature, 20 nM enzyme, 50-2,000 uM substrate
[4] = biological target: the molecule itself; test: crystal structure; CgDHQD R19A, 0.8 M lithium sulfate, 0.4 M ammonium sulfate, 0.1 M sodium citrate pH 5.5, soaked with 100 mM DHQ; space group C2221, six molecules per asymmetric unit, 2.0 Å

Molecule | Km (purified protein) | kcat (purified protein) | other results
O=C(O)CC(O)(CC(=O)O)C(=O)O [citrate] |  |  | X-ray crystal structure, 1.80 A, co-crystallised (CgDHQD [1]): CgDHQD structure in complex with the citrate ion exhibits two different binding modes
O=C1C[C@@](O)(C(=O)O)C[C@@H](O)[C@@H]1O [DHQ, 3-dehydroquinic acid] |  |  | X-ray crystal structure, 2.00 A, crystal soaked with 100 mM DHQ (CgDHQD [2]): The DHQ-bound structure of CgDHQD explained the substrate-binding mode of the enzyme
B1 | 348.20 µM | 150.19 s⁻¹ | stoichiometry N [3]: 12
B2 |  |  | binding result [4]: binds
B3 | 745.3 µM | 199.67 s⁻¹ | 
